Experimental data as given in the supplement of paper PMC9112550, “Optimization of the antimicrobial peptide Bac7 by deep mutational scanning” (BMC Biology, 2022).

Each sequence was assayed on Escherichia coli TOP10 (assay: shrunken log2 fold change of peptide-encoding DNA abundance (4.5 h post-induction vs induction); higher = less antimicrobial activity (less host growth inhibition)). Conditions: time post-induction: 4.5 h; library: site-saturation at positions 5, 18, 19, 20.
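Further: peptides expressed intracellularly from a pBAD plasmid library in pooled LB shake-flask culture, induced with 0.3% L-arabinose, DNA abundance read by NGS, three biological replicates, DESeq2 with apeglm shrinkage.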

Sequence	shrunken log2 fold change
RRIRRRPPRLPRPRPRPGMSPRP	0.226
RRIRRRPPRLPRPRPRPGNKPRP	-0.176
RRIRRRPPRLPRPRPRPGNMPRP	-0.266
RRIRRRPPRLPRPRPRPGPSPRP	0.442
RRIRRRPPRLPRPRPRPGQFPRP	0.0178
RRIRRRPPRLPRPRPRPGRMPRP	0.41
RRIRRRPPRLPRPRPRPGSVPRP	0.299
RRIRRRPPRLPRPRPRPGTDPRP	0.0719
RRIRRRPPRLPRPRPRPGTEPRP	0.443
RRIRRRPPRLPRPRPRPGVRPRP	0.318
RRIRRRPPRLPRPRPRPGVTPRP	0.303
RRIRRRPPRLPRPRPRPGWIPRP	0.442
RRIRRRPPRLPRPRPRPHAHPRP	-0.00194
RRIRRRPPRLPRPRPRPHALPRP	0.0116
RRIRRRPPRLPRPRPRPHAVPRP	0.251
RRIRRRPPRLPRPRPRPHCCPRP	0.208
RRIRRRPPRLPRPRPRPHDWPRP	0.312
RRIRRRPPRLPRPRPRPHEPPRP	-0.0636
RRIRRRPPRLPRPRPRPHEQPRP	0.0519
RRIRRRPPRLPRPRPRPHFMPRP	-0.141
RRIRRRPPRLPRPRPRPHGSPRP	-0.0609
RRIRRRPPRLPRPRPRPHGTPRP	0.00291
RRIRRRPPRLPRPRPRPHHGPRP	-0.249
RRIRRRPPRLPRPRPRPHHHPRP	-0.161
RRIRRRPPRLPRPRPRPHKWPRP	2.57

Sequence	shrunken log2 fold change
RRIRRRPPRLPRPRPRPHPLPRP	0.211
RRIRRRPPRLPRPRPRPHSRPRP	0.163
RRIRRRPPRLPRPRPRPHTFPRP	-0.108
RRIRRRPPRLPRPRPRPHWAPRP	-0.17
RRIRRRPPRLPRPRPRPHWHPRP	0.0772
RRIRRRPPRLPRPRPRPIAFPRP	-0.0124
RRIRRRPPRLPRPRPRPIARPRP	0.0248
RRIRRRPPRLPRPRPRPICAPRP	0.127
RRIRRRPPRLPRPRPRPICKPRP	0.0422
RRIRRRPPRLPRPRPRPICNPRP	-0.12
RRIRRRPPRLPRPRPRPICVPRP	0.0261
RRIRRRPPRLPRPRPRPIDEPRP	-0.106
RRIRRRPPRLPRPRPRPIDRPRP	-0.0459
RRIRRRPPRLPRPRPRPIEPPRP	-0.015
RRIRRRPPRLPRPRPRPIGAPRP	0.435
RRIRRRPPRLPRPRPRPIGMPRP	-0.0232
RRIRRRPPRLPRPRPRPIGWPRP	0.217
RRIRRRPPRLPRPRPRPIHPPRP	-0.261
RRIRRRPPRLPRPRPRPIKFPRP	-0.202
RRIRRRPPRLPRPRPRPILAPRP	1.17
RRIRRRPPRLPRPRPRPIMSPRP	-0.0839
RRIRRRPPRLPRPRPRPIMTPRP	0.125
RRIRRRPPRLPRPRPRPINFPRP	-0.0729
RRIRRRPPRLPRPRPRPIPIPRP	-0.0501
RRIRRRPPRLPRPRPRPIQGPRP	-0.00136

Sequence	shrunken log2 fold change
RRIRRRPPRLPRPRPRPIRQPRP	0.00198
RRIRRRPPRLPRPRPRPITCPRP	-0.307
RRIRRRPPRLPRPRPRPITYPRP	-0.0184
RRIRRRPPRLPRPRPRPIVLPRP	-0.102
RRIRRRPPRLPRPRPRPIYCPRP	-0.0446
RRIRRRPPRLPRPRPRPKAMPRP	0.431
RRIRRRPPRLPRPRPRPKARPRP	0.277
RRIRRRPPRLPRPRPRPKCDPRP	0.0319
RRIRRRPPRLPRPRPRPKCHPRP	0.0704
RRIRRRPPRLPRPRPRPKDDPRP	0.302
RRIRRRPPRLPRPRPRPKECPRP	0.0842
RRIRRRPPRLPRPRPRPKGIPRP	0.268
RRIRRRPPRLPRPRPRPKGWPRP	0.439
RRIRRRPPRLPRPRPRPKKAPRP	-0.00843
RRIRRRPPRLPRPRPRPKNFPRP	0.151
RRIRRRPPRLPRPRPRPKNGPRP	0.259
RRIRRRPPRLPRPRPRPKNIPRP	-0.136
RRIRRRPPRLPRPRPRPKNVPRP	-0.00431
RRIRRRPPRLPRPRPRPKPEPRP	0.489
RRIRRRPPRLPRPRPRPKQTPRP	0.186
RRIRRRPPRLPRPRPRPKRLPRP	0.191
RRIRRRPPRLPRPRPRPKRNPRP	0.525
RRIRRRPPRLPRPRPRPKSSPRP	-0.00897
RRIRRRPPRLPRPRPRPKTFPRP	-0.0358
RRIRRRPPRLPRPRPRPKVWPRP	0.382
